Ends that are not written are not given here.
What was measured:
[1] = molecular target: T1, neuropilin-1 by forced expression in M21 cells (transfected neuropilin-1 cDNA) (UniProt O14786 22-923, limits assumed); test: cell-based or functional assay
[2] = molecular target: T1, neuropilin-1 by forced expression in …; test: phage binding to M21 cells transfected with neuropilin-1 cDNA against vector alone or untransfected cells, phage titration
Method: Suspended cells (10⁶ cells in DMEM containing 1% BSA) were incubated with 10⁸ pfu/ml of T7 phage for 1 hr at 4° C. The cells were washed 4 times with the binding buffer, lysed with lysogeny broth containing 1% NP-40, and titrated. Phage internalization assays used the same procedure, except that the cells were incubated with phage at 37° C., and that an acidic buffer (500 mM sodium chloride, 0.1 M glycine, 1% BSA, pH 2.5) was substituted for the binding buffer in the second wash. Inhibitors of binding and internalization were added 20 min prior to incubation with phage. […] Free synthetic peptides, mouse antibodies against human α1, α2, αvβ3, αvβ5, α5β1, α4, or αv integrins and integrin subunits (Chemicon), goat anti-rat neuropilin-1 (R&D Systems, Minneapolis, Minn.), with mouse and a goat IgG isotype controls (Abcam) were also tested.

T1 sequence (O14786 22-923 limits assumed): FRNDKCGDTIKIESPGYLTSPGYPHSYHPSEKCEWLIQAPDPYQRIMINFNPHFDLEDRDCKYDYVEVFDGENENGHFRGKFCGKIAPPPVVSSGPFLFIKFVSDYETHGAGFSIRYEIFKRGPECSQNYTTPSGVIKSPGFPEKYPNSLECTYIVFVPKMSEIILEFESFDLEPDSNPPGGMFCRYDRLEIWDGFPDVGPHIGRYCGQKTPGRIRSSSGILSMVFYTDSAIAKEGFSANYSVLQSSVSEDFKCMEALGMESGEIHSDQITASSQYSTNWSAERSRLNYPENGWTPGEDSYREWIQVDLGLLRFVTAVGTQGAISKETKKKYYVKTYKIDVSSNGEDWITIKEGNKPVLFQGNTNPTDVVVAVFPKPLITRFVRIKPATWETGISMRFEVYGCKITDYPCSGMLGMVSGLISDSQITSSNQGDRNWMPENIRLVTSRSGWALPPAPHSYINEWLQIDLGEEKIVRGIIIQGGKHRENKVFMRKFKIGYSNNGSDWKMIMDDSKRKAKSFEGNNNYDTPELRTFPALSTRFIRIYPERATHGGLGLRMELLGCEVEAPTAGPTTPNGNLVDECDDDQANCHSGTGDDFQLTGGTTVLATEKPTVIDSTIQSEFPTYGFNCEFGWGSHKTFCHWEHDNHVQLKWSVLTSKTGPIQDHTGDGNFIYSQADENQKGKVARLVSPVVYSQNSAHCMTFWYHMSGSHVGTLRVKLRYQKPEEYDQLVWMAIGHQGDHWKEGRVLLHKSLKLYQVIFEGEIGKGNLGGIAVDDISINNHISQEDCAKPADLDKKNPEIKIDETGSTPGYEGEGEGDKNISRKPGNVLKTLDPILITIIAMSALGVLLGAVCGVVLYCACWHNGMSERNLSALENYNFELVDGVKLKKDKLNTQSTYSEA

B1: CRGDK phage (T7 phage displaying CRGDK) (peptide)
peptide: CRGDK
modifications: also: displayed on T7 phage
notes: CRGDK is the N-terminal proteolytic fragment of iRGD; also called CRGDK fragment; FAM-CRGDK
internalization of CRGDK phage into M21 cells [1]: 3.5 fold | fold increase of binding on forced expression of neuropilin-1 in M21 cells [2]: 3.5 fold

Source: patent publication US20130343989A1 (SANFORD BURNHAM MEDICAL RESEARCH INSTITUTE, published 2013)
